Test results taken from article PMC7817190 (Proceedings of the National Academy of Sciences of the …, 2020).

Legend:
[1] = biological target: His-tagged human recombinant corneodesmosin (His-CDSN) (human) (UniProt Q15517); experiment: SPR
[2] = biological target: T1, His-tagged human recombinant corneodesmosin (His-CDSN) (human, UniProt Q15517 33-529); experiment: SPR
T1 sequence (looked up): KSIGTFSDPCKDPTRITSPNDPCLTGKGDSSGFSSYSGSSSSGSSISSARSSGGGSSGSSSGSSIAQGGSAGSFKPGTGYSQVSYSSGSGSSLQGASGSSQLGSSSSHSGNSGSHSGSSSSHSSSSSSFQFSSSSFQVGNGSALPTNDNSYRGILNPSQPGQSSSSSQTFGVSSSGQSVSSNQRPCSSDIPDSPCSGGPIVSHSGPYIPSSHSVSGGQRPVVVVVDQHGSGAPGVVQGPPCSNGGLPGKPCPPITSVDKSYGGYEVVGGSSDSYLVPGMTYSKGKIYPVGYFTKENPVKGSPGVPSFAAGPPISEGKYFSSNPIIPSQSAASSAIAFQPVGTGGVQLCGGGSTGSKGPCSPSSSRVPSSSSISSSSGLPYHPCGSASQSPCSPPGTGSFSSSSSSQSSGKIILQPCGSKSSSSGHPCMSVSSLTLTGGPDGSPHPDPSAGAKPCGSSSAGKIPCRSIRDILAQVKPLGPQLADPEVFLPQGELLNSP

## recombinant FnBPB N2N3 subdomains with the sequence of the AD08 protein (rFnBPBCC1N2N3) (domain or fragment)
[1]
  Kd: 49.1 µM

B1: recombinant ClfB N2N3 subdomains with the sequence of the AD08 protein (rClfBCC1N2N3) (domain or fragment)
chain: AEPVVNAADAKGTNVNDKVTAKDFQLEKTTFDPNQSGNTFMAANFTVTGQVKSGDYFTAKLPDSVTGNGDVDYSNSNNTMPIADIVNDKNEVVAKATYDILTKTYTFVFTDYVNDKQNINGKFSLPLFTDRAKAPKSGTYDANINIADEMFNNKITYNYSSPIAGIDKPNGANISSQIIGVDTASGQNTYKQTVFVNPKQRVLGNTWVYIKGYQDKIEESSGKVSATDTKLRIFEVNDTSKLSDSYYADPNDSNLKEVTDQFKDKITYKYQNVASINFGDINKTYVVLVEGHYDKTGKNLKTQVIQENVDPATGKDYSIFGWNNENVVRYGGGSADGDSAVN
[2]
  Kd: 44.6 µM
